According to patent US20030017489:

Biological target: recombinant Histone H3

B1: hCARM-1 (SEQ ID NO:9) (protein)
chain: MAAAAAAVGPGAGGAGSAVPGGAGPCATVSVFPGARLLTIGDANGEIQRHAEQQALRLEVRAGPDSAGIALYSHEDVCVFKCSVSRETECSRVGKQSFIITLGCNSVLIQFATPNDFCSFYNILKTCRGHTLERSVFSERTEESSAVQYFQFYGYLSQQQNMMQDYVRTGTYQRAILQNHTDFKDKIVLDVGCGSGILSFFAAQAGARKIYAVEASTMAQHAEVLVKSNNLTDRIVVIPGKVEEVSLPEQVDIIISEPMGYMLFNERMLESYLHAKKYLKPSGNMFPTIGDVHLAPFTDEQLYMEQFTKANFWYQPSFHGVDLSALRGAAVDEYFRQPVVDTFDIRILMAKSVKYTVNFLEAKEGDLHRIEIPFKFHMLHSGLVHGLAFWFDVAFIGSIMTVWLSTAPTEPLTHWYQVRCLFQSPLFAKAGDTLSGTCLLIANKRQSYDISIVAQVDQTGSKSSNLLDLKNPFFRYTGTTPSPPPGSHYTSPSENMWNTGSTYNLSSGMAVAGMPTAYDLSSVIASGSSVGHNNLIPLANTGIVNHTHSRMGSIMSTGIVQGSSGAQGSGGGSTSAHYAVNSQFTMGGPAISMASPMSIPTNTMHYGS
- methylation of Histone H3 (in vitro methylation reaction, SDS-PAGE, exposed to film): Our experiments showed that hCARM-1 methylates Histone H3 efficiently
